# Article PMC11745445 (2024)
# B1: LV-MKK3-His-WT (His-labeled wild-type MKK3) in HT-22 cells [not stated] / RAGE (receptor for advanced glycation end products), endogenous in HT-22 cells [mouse (endogenous in HT-22)] (parent complex)
# chain 1: MESPAASPPASLPQTKGKSKRKKDLRISCVSKPPVSNPTPPRNLDSRTFITIGDRNFEVEADDLVTISELGRGAYGVVEKVRHAQSGTIMAVKRIRATVNTQEQKRLLMDLDINMRTVDCFYTVTFYGALFREGDVWICMELMDTSLDKFYRKVLEKNMKIPEDILGEIAVSIVRALEHLHSKLSVIHRDVKPSNVLINKEGHVKMCDFGISGYLVDSVAKTMDAGCKPYMAPERINPELNQKGYNVKSDVWSLGITMIEMAILRFPYESWGTPFQQLKQVVEEPSPQLPADQFSPEFVDFTSQCLRKNPAERMSYLELMEHPFFTLHKTKKTDIAAFVKEILGEDS
# chain 2: GQNITARIGEPLVLSCKGAPKKPPQQLEWKLNTGRTEAWKVLSPQGGPWDSVARILPNGSLLLPATGIVDEGTFRCRATNRRGKEVKSNYRVRVYQIPGKPEIVDPASELTASVPNKVGTCVSEGSYPAGTLSWHLDGKLLIPDGKETLVKEETRRHPETGLFTLRSELTVIPTQGGTHPTFSCSFSLGLPRRRPLNTAPIQLRVREPGPPEGIQLLVEPEGGIVAPGGTVTLTCAISAQPPPQVHWIKDGAPLPLAPSPVLLLPEVGHEDEGTYSCVATHPSHGPQESPPVSIRVTETGDEGPAEGSVGESGLGTLALALGILGGLGVVALLVGAILWRKRQPRREERKAPESQEDEEERAELNQSEEAEMPENGAGGP
# Variants of: B1
# Assay: co-IP (IP: RAGE, IB: MKK3-His) followed by western blotting, optical density; hippocampus of MKK3-knockdown db/db mice; n = 4 in each group; parent: 3.1; read off a plot
row,response,Variant
1,~1.4 fold change relative to the db/db + MKK3-shRNA group,chain 1 K329A

# Variants of: B1
# Assay: co-IP (IP: MKK3-His, IB: RAGE) followed by western blotting, optical density; hippocampus of MKK3-knockdown db/db mice; n = 4 in each group; parent: 1.7; read off a plot
row,response,Variant
1,~1.1 fold change relative to the db/db + MKK3-shRNA group,chain 1 K329A

# Variants of: B1
# Assay: co-IP (IP: MKK3-His, IB: RAGE) followed by western blotting, optical density; MKK3-knockdown HT-22 cells, high-glucose stimulation 24 hours; n = 4 in each group; parent: 4; read off a plot
row,response,Variant
1,~1.4 fold change relative to the HG + MKK3-shRNA group,chain 1 K329A

# Variants of: B1
# Assay: co-IP (IP: RAGE, IB: MKK3-His) followed by western blotting, optical density; MKK3-knockdown HT-22 cells, high-glucose stimulation 24 hours; n = 4 in each group; parent: 3.4; read off a plot
row,response,Variant
1,~1.1 fold change relative to the HG + MKK3-shRNA group,chain 1 K329A
